Measured values: patent publication US20060275211A1 (AGENSYS, published 2006)

Columns and labels:
[1] = target: T1, mouse 161P2F10B expressed on 293T cells (mouse, UniProt Q6DYE8 1-874); experiment: FACS: 293T-mouse 161P2F10B cells (open line) vs 293T-neo cells (filled), MAb 2 µg/mL, anti-hIgG-PE
T1 construct: whole, on cells; also called murine 161P2F10B; mouse 161P2F10B ortholog
Protocol: Cross reactivity of human MAbs on mouse 161P2F10B. […] Antibodies bound on the cells were detected using anti-hIgG-PE and analyzed on FACS. Data were analyzed using CellQuest Pro software. The solid purple line is data from negative control cells. The green line is from 161P2F10B-positive cells.

[2] = target: T2, Tag5-161P2F10B, purified recombinant extracellular domain (ECD) of 161P2F10B (amino acids 46-875) (human, UniProt O14638 46-875); experiment: SPR, MAb captured on CM5 chip, recombinant 161P2F10B 1-100 nM injected
T2 construct: also called recombinant 161P2F10B; Tag5-161P2F10B-ECD
Description: Briefly, each purified human MAb is captured onto a CM5 sensor chip surface. On average approximately 150 RUs of each MAb is captured in every cycle.

T1 sequence (Q6DYE8 whole entry): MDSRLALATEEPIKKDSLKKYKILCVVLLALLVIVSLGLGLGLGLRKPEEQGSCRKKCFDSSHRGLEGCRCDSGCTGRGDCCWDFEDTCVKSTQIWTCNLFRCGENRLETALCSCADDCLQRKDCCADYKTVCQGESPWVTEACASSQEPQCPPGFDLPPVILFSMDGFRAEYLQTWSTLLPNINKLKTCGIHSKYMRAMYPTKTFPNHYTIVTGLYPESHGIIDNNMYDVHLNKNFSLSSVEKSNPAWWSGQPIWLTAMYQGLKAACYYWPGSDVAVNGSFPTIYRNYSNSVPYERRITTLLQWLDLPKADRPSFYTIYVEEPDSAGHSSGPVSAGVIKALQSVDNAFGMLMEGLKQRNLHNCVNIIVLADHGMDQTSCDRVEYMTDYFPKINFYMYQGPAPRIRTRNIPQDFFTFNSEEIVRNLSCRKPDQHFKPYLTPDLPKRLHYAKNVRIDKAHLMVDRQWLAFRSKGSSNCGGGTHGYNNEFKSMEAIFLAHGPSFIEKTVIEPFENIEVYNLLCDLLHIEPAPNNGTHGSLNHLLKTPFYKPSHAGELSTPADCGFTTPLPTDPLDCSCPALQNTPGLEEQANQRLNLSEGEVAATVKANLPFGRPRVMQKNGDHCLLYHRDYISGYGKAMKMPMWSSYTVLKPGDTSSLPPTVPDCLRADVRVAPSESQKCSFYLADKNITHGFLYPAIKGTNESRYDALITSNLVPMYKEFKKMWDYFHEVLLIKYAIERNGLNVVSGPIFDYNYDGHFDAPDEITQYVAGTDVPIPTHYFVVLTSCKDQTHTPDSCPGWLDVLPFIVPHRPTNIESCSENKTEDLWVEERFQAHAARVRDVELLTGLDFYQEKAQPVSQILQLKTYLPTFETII

Row | binding result [1] | Kd [2] [nM] | Binder
1 | binds |  | H16-7.8 (antibody, V domains shown, Entries include the leader and a portion of the constant region) VH: QVQLQESGPGLVKPSQTLSLTCTVSGGSISSGGYYWSWIRQHPGKGLEWIGIIYYSGSTYYNPSLKSRVTISVDTSKNQFSLKLNSVTAADTAVFYCARVAIVTTIPGGMDVWGQGTTVTVSS VL: EIVLTQSPDFQSVTPKEKVTITCRASQSIGISLHWYQQKPDQSPKLLIKYASQSFSGVPSRFSGSGSGTDFTLTINSLEAEDAATYYCHQSRSFPWTFGQGTKVEIKR
2 |  | 9 | H16-7.200 (antibody, V domains shown, Entries include the leader (VL: part of it) and a portion of the constant region; also called HA16-7.200) VH: QVQLQESGPGLVKPSQTLSLTCTVSGGSITSGDYYWSWIRQHPGKGLEWFGFIYYSGSAYYNPSLKSRITISVDTSKNQFSLKLSSVTAADTAVYYCARERNYGGNSFDYWGQGTLVTVSS VL: not shown
